Columns and labels:
[1] = biological target: Yah1-GST fusion protein (S. cerevisiae) (UniProt Q12184); test: pull-down; GST-tagged Yah1 bait (2.5 μM) incubated with NIA (5 μM or increasing) and/or Isu1 (7.5 μM) in buffer PD (40 mM Hepes–KOH pH 7.5, 5% glycerol, 100 mM KCl, 1 mM DTT, 10 mM MgCl2) 15 min at 25 °C; glutathione agarose 1 h at 4 °C; SDS-PAGE, InstantBlue, densitometry corrected for binding to GST; aerobic (Yah1 cluster oxidised)
[2] = biological target: NIA–Isu1 complex with C. thermophilum Isu1 (S. cerevisiae | E. coli (endogenous in the expression host) | C. thermophilum) (UniProt P25374); test: pull-down; competition: Yah1^GST (2.5 μM) with NIA (5 μM), with or without Isu1Sc or Isu1Ct (7.5 μM), then Yfh1 WT or DE/KK added (12.5 μM or increasing concentrations); glutathione resin; densitometry, amount without Yfh1 set as 100%; buffer PD

Sequence of Yah1-GST fusion protein (S. cerevisiae) (Q12184 17-172): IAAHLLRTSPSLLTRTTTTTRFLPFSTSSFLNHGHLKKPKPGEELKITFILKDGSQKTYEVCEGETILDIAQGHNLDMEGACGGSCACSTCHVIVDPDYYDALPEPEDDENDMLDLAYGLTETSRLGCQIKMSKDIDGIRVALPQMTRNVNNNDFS

Row | binding as percent of the WT control [1] [%] | percent of the control left pulled down with Yah1^GST at 5 μM Yfh1 [2] [%] | percent reduction of Nfs1, Isd11 and Isu1 pulled down with Yah1^GST at a fivefold excess of Yfh1 (12.5 μM) [2] [%] | Substance
1 | 30 | – | – | NIA–Isu1 complex containing Nfs1(R313A, R316A, R318A), with Isu1Ct (from UniProt P25374 37-497; Q6Q560 1-94; P0A6A8 1-78)
2 | 20 | – | – | NIA–Isu1 complex containing Nfs1(R313E, R316E, R318E), with Isu1Ct (from UniProt P25374 37-497; Q6Q560 1-94; P0A6A8 1-78)
3 | – | 30 | 85 | Yfh1 (frataxin) with a C-terminal polyhistidine tag (from UniProt Q07540 52-174) (natural protein)

Reference: paper PMC8888459
